First the molecules themselves.
B1: Twist-related protein 1 (Homo sapiens), Q15672 (parent)
chain: MMQDVSSSPVSPADDSLSNSEEEPDRQQPPSGKRGGRKRRSSRRSAGGGAGPGGAAGGGVGGGDEPGSPAQGKRGKKSAGCGGGGGAGGGGGSSSGGGSPQSYEELQTQRVMANVRERQRTQSLNEAFAALRKIIPTLPSDKLSKIQTLKLAARYIDFLYQVLQSDELDSKMASCSYVAHERLSYAFSVWRMEGAWSMSASH

The variants in assay [1] derive from B1. The conditions noted are these: with TCF3, P15923-1.
Variants of B1 are the subject of assay [2]. The conditions noted are these: with TCF3, P15923-1. The source holds these as a separate data set.

Sequence of TCF3, P15923-1 (P15923 whole entry): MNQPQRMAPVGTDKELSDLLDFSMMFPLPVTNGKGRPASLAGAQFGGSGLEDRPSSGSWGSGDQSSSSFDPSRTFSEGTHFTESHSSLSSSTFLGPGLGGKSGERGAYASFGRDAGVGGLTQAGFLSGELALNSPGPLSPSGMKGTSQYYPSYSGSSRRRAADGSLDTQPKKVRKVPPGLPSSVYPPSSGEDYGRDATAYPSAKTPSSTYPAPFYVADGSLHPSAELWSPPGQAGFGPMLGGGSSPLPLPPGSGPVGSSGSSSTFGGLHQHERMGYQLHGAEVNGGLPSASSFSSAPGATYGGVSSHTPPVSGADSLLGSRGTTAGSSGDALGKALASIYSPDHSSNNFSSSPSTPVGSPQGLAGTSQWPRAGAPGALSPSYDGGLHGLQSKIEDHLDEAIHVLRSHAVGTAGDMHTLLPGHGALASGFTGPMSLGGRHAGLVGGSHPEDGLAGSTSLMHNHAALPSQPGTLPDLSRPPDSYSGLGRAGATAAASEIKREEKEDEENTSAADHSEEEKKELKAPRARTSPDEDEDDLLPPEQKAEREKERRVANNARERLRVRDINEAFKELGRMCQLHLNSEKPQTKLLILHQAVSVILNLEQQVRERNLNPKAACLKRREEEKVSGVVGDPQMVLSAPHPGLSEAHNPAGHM

In the case of L159F, the “effect of a mutation on the interaction” value is “disrupting interaction strength” in assay [1] and “decreasing interaction strength” in assay [2].
Taken in the same sequence, the figures for K145E were “decreasing interaction strength” and “with no effect”.
Taken in the same sequence, the figures for A129P were “disrupting interaction strength” and “decreasing interaction strength”.

Values taken from IntAct's records for PubMed 10749989.
